Biological target: Hp-chimMotB (soluble chimeric variant of Helicobacter pylori MotB with the transmembrane helix replaced by a GCN4-derived leucine zipper) (S. cerevisiae | Helicobacter pylori) (UniProt P03069)
Test: SAXS; Hp-chimMotB at 0.05, 0.11 and 0.25 mg/mL in 100 mM sodium acetate pH 4.6, 200 mM NaCl, room temperature; MW from I(0) (Guinier, P(r)) and Porod volume compared with the theoretical dimer mass

## Hp-chimMotB (soluble chimeric variant of Helicobacter pylori MotB with the transmembrane helix replaced by a GCN4-derived leucine zipper) (from UniProt P03069 249-279; P56427 41-257)
  stoichiometry N: 2
